Source: paper PMC12817480, “Phospho‐Proteomics Identifies D‐Group MAP Kinases as Substrates of the Arabidopsis Tyrosine Phosphatase RLPH2” (Plant Direct, 2026)

T1: Purified MPK9‐V5‐His6 with the RVSF motif maintained (MPK9^RVSF), as used with PP1 (Arabidopsis thaliana, UniProt Q9LV37 1-510)
T1 construct: MAP kinase 9 (MPK9), Arabidopsis thaliana, At3g18040, synthesized gene codon optimized for bacteria, in pDEST42; Same construct as m2; also called MPK9^RVXF; MPK9^RVxF; source: E. coli BL21 (DE3) CodonPlus‐RIL, purified (Ni‐NTA)
T1 sequence (looked up): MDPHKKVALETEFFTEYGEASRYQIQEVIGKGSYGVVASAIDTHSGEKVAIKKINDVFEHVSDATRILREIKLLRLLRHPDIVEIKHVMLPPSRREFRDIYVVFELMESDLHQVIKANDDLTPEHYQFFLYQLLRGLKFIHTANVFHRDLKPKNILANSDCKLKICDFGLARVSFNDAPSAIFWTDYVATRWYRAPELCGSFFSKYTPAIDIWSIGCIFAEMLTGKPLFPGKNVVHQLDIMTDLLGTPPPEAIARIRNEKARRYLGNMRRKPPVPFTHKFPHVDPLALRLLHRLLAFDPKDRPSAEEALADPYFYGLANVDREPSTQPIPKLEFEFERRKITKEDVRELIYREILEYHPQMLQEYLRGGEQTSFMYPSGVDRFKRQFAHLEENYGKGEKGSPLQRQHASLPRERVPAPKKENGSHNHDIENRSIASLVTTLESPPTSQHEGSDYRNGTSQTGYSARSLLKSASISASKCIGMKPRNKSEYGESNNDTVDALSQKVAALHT

T2: MPK9‐V5‐His6, full‐length, activated/phosphorylated (MPK9^TDY) (Arabidopsis thaliana, UniProt Q9LV37 1-510, phospho-threonine and phospho-tyrosine of the activation loop TDY motif (autophosphorylated; dual phosphorylated pTxpY))
T2 construct: MAP kinase 9 (MPK9), Arabidopsis thaliana, At3g18040, synthesized gene codon optimized for bacteria, in pDEST42; Printed as MPK9-V5-His6 (tags written after the name); also called MAP kinase 9; ATMPK9; source: E. coli BL21 (DE3) CodonPlus‐RIL, purified (Ni‐NTA), then autophosphorylated with Mg‐ATP
T2 sequence (looked up): T1 sequence (looked up)

B1: Arabidopsis PP1 isoform 2 (TOPP2) (enzyme, Arabidopsis thaliana, UniProt P48482 1-312, looked up)
chain: MAQQGQGSMDPAALDDIIRRLLDYRNPKPGTKQAMLNESEIRQLCIVSREIFLQQPNLLELEAPIKICGDIHGQYSDLLRLFEYGGFPPTANYLFLGDYVDRGKQSLETICLLLAYKIKYPENFFLLRGNHECASINRIYGFYDECKRRFSVRLWKVFTDSFNCLPVAAVIDDKILCMHGGLSPDLTNVEQIKNIKRPTDVPDSGLLCDLLWSDPSKDVKGWGMNDRGVSYTFGPDKVAEFLIKNDMDLICRAHQVVEDGYEFFADRQLVTIFSAPNYCGEFDNAGAMMSVDESLMCSFQILKPADRKPRFL
notes: Type one protein phosphatase 2 (TOPP2), PP1 catalytic subunit, Arabidopsis thaliana; source: recombinant, purified on microcystin‐Sepharose (as in Templeton et al. 2011)
B2: Arabidopsis PP1 isoform 1 (TOPP1) (enzyme, Arabidopsis thaliana, UniProt P30366 1-318, looked up)
chain: MAEKPAQEQEQKRAMEPAVLDDIIRRLVEFRNTRPGSGKQVHLSEGEIRQLCAVSKEIFLQQPNLLELEAPIKICGDIHGQYSDLLRLFEYGGFPPEANYLFLGDYVDRGKQSLETICLLLAYKIKYPENFFLLRGNHESASINRIYGFYDECKRRFNVRLWKIFTDCFNCLPVAALIDDRILCMHGGISPELKSLDQIRNIARPMDIPESGLVCDLLWSDPSGDVGWGMNDRGVSYTFGADKVAEFLEKHDMDLICRAHQVVEDGYEFFAERQLVTVFSAPNYCGEFDNAGAMMSIDESLMCSFQILKPSEKKSPFL
notes: Type one protein phosphatase 1 (TOPP1), PP1 catalytic subunit, Arabidopsis thaliana; source: recombinant, purified on microcystin‐Sepharose (as in Templeton et al. 2011)
B3: Arabidopsis PP1 isoform 4 (TOPP4) (enzyme, Arabidopsis thaliana, UniProt P48484 1-321, looked up)
chain: MATTTTTQGQQTAIDSAVLDDIIRRLTEVRLARPGKQVQLSEAEIKQLCTTARDIFLQQPNLLELEAPIKICGDIHGQYSDLLRLFEYGGFPPSANYLFLGDYVDRGKQSLETICLLLAYKIKYPGNFFLLRGNHECASINRIYGFYDECKRRFNVRVWKVFTDCFNCLPVAALIDDKILCMHGGLSPDLDHLDEIRNLPRPTMIPDTGLLCDLLWSDPGKDVKGWGMNDRGVSYTFGPDKVSEFLTKHDLDLVCRAHQVVEDGYEFFADRQLVTVFSAPNYCGEFDNAGAMMSVDENLMCSFQILKPAEKKTKFMMSTKI
notes: Type one protein phosphatase 4 (TOPP4), PP1 catalytic subunit, Arabidopsis thaliana; source: recombinant, purified on microcystin‐Sepharose (as in Templeton et al. 2011)
B4: Arabidopsis PP1 isoform 3 (TOPP3) (enzyme, Arabidopsis thaliana, UniProt P48483 1-322, looked up)
chain: MEDSVVDDVIKRLLGAKNGKTTKQVQLTEAEIKHLCSTAKQIFLTQPNLLELEAPIKICGDTHGQFSDLLRLFEYGGYPPAANYLFLGDYVDRGKQSVETICLLLAYKIKYKENFFLLRGNHECASINRIYGFYDECKKRYSVRVWKIFTDCFNCLPVAALIDEKILCMHGGLSPELKHLDEIRNIPRPADIPDHGLLCDLLWSDPDKDIEGWGENDRGVSYTFGADKVEEFLQTHDLDLICRAHQVVEDGYEFFANRQLVTIFSAPNYCGEFDNAGAMMSVDDSLTCSFQILKASEKKGNFGFGKNAGRRGTPPRKGGGKG
notes: Type one protein phosphatase 3 (TOPP3), PP1 catalytic subunit, Arabidopsis thaliana; source: recombinant, purified on microcystin‐Sepharose (as in Templeton et al. 2011)
B5: Arabidopsis thaliana Rhizobiales‐like phosphatase 2 (RLPH2‐V5‐His6) (enzyme, UniProt Q9SR62 1-309, looked up)
chain: MAQKPRTVICVGDIHGYISKLNNLWLNLQSAIDPSDFSSALVIFLGDYCDRGPETRKVIDFLISLPEKHPDQTHVFLAGNHDFAFSGFLGLLPRPSDGSDLKDTWKEYSKSEETEGWYTGEGFEDMHLQGRRWAGKIKATFNSVKGMAYKGSIYDAGSTFESYGVPHGSSDLMKAVPESHKKFLTNMVWVHEEDDVCIETEEGLKHCKLIAVHAGLEKGNNVEEQLKLLRAKDTSISKIQHLSGRKNVWDIPQELDDKHTVVVSGHHGKLHIDGMRLIIDEGGGFPDKPVAAIVLPSKKIIRDTDNLSS
notes: Rhizobiales-like phosphatase 2 (RLPH2), Arabidopsis thaliana; Printed as RLPH2-V5-His6 (tags written after the name); source: bacterially expressed, purified (as in Uhrig et al. 2016)
B6: Arabidopsis PP1 isoform 9 (TOPP9) (enzyme, Arabidopsis thaliana, UniProt Q9M9W3 1-318, looked up)
chain: MMTSMEGMMEMGVLDDIIRRLLEGKGGKQVQLSEVEIRQLCVNARQIFLSQPNLLELHAPIRICGDIHGQYQDLLRLFEYGGYPPSANYLFLGDYVDRGKQSLETICLLLAYKIRYPSKIFLLRGNHEDAKINRIYGFYDECKRRFNVRLWKIFTDCFNCLPVAALIDEKILCMHGGLSPELENLGQIREIQRPTEIPDNGLLCDLLWSDPDQKNEGWTDSDRGISCTFGADVVADFLDKNDLDLICRGHQVVEDGYEFFAKRRLVTIFSAPNYGGEFDNAGALLSVDQSLVCSFEILKPAPASSTNPLKKVPKMGKS
notes: Type one protein phosphatase 9 (TOPP9), PP1 catalytic subunit, Arabidopsis thaliana; source: recombinant, purified on microcystin‐Sepharose (as in Templeton et al. 2011)
B7: Arabidopsis PP1 isoform 8 (TOPP8) (enzyme, Arabidopsis thaliana, UniProt O82734 1-324, looked up)
chain: MMTSMEGMVEKGVLDDIIRRLLEGKGGKQVQLSESEIRQLCFNARQIFLSQPNLLDLHAPIRICGDIHGQYQDLLRLFEYGGYPPSANYLFLGDYVDRGKQSLETICLLLAYKIRYPSKIYLLRGNHEDAKINRIYGFYDECKRRFNVRLWKVFTDCFNCLPVAALIDEKILCMHGGLSPDLDNLNQIREIQRPIEIPDSGLLCDLLWSDPDQKIEGWADSDRGISCTFGADKVAEFLDKNDLDLICRGHQVVEDGYEFFAKRRLVTIFSAPNYGGEFDNAGALLSVDESLVCSFEIMKPAPASSSHPLKKDFHNRTLGYNLSA
notes: Type one protein phosphatase 8 (TOPP8), PP1 catalytic subunit, Arabidopsis thaliana; source: recombinant, purified on microcystin‐Sepharose (as in Templeton et al. 2011)
B8: Arabidopsis PP1 isoform 5 (TOPP5) (enzyme, Arabidopsis thaliana, UniProt P48485 1-312, looked up)
chain: MAQQGQGSMDPAVLDDIIRRLLDYRNPKAGTKQAMLNDSEIRQLCFVSREIFLQQPCLLELAAPVKICGDIHGQYSDLLRLFEYGGFPPAANYLFLGDYVDRGKQSLETICLLLAYKIKYPENFFLLRGNHECASINRIYGFYDECKRRFNVKLWKVFTDTFNCLPVAAVIDEKILCMHGGLSPELINVEQIKNIERPTDVPDAGLLCDLLWSDPSKDVKGWGMNDRGVSYTFGADKVAEFLIKNDMDLVCRAHQVVEDGYEFFADRQLVTMFSAPNYCGEFDNAGALMSVDESLMCSFQILKPVDRRSRFF
notes: Type one protein phosphatase 5 (TOPP5), PP1 catalytic subunit, Arabidopsis thaliana; also called AtPP1; source: recombinant, purified on microcystin‐Sepharose (as in Templeton et al. 2011)

Legend:
Details in all cases: both partners purified
[1] = molecular target: T1, Purified MPK9‐V5‐His6 with the RVSF …; test: far-Western, overlay or dot blot; MPK9^RVXF and MPK9^RASA run on SDS‐PAGE, blotted to nitrocellulose, probed with PP1 (TOPP) isoforms (2 μg/mL) for 4 h in TBS plus 5% milk powder; PP1 detected with anti‐TOPP antibody
[2] = molecular target: T2, MPK9‐V5‐His6, full‐length, …; test: far-Western, overlay or dot blot; purified activated MPKs dotted onto nitrocellulose, blocked, overlaid with purified RLPH2 (1.5 μg/mL), detected with anti‐RLPH2 antibody; in triplicate
[3] = molecular target: T1, Purified MPK9‐V5‐His6 with the RVSF …; test: pull-down; TOPP5 (1 μg) and MPK9^RVXF or MPK9^RASA (5 μg) incubated 1 h at RT, then with BSA‐blocked Ni‐NTA 1 h at RT; washed with 50 mM HEPES pH 7.5, 300 mM NaCl, 0.1% Tween 20; western blot (V5, pan‐TOPP)

Binder	binding result [1]	other results
B1	binds	
B2	binds	
B3	binds	
B4	binds	
B5		binding result [2]: binds
B6	binds	
B7	binds	
B8		binding result [3]: binds
